Experimental data from patent publication US20260347476 (published 2026).

T1: IL-15Rbetagamma heterodimer (human, UniProt P14784)
T1 chain 1: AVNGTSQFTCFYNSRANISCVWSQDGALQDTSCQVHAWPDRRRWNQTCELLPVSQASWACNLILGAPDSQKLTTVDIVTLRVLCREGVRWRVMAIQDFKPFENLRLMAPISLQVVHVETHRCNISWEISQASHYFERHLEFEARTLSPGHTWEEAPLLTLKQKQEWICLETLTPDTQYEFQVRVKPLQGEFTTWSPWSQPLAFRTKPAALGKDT
T1 chain 2: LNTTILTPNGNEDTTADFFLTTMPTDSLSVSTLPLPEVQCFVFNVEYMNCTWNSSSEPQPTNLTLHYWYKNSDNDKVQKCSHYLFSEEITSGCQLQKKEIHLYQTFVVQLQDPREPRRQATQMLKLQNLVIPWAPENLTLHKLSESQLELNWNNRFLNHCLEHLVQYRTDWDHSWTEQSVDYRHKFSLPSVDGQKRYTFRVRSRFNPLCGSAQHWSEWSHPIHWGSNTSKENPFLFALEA


Key:
[1] = biological target: T1, IL-15Rbetagamma heterodimer; assay: SPR, PD1 capture
[2] = biological target: T1, IL-15Rbetagamma heterodimer; assay: SPR, anti-human Fc capture
IL-15 [3] = biological target: T2, IL-15 (human, UniProt P40933); assay: SPR, PD1 capture
IL-15 [4] = biological target: T2, IL-15; assay: SPR, anti-human Fc capture

T2 sequence (P40933 49-162): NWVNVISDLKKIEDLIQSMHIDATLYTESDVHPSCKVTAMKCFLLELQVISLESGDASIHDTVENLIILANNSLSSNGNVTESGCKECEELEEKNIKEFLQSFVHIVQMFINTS

Row | Kd [1] [nM] | Kd [2] [nM] | Kd (IL-15 [3]) [nM] | Kd (IL-15 [4]) [nM] | Binder
1 | 1.07 | 0.771 |  |  | RV36:IL-15 complex (antibody) chain 1: QVQLVQSGAEVKKPGASVKVSCKASGYSFSSFGISWVRQAPGQGLEWLGWISAFNGYTKYAQKFQDRVTMTTDTSTSTAYMELRSLRSDDTAVYYCARDPAAWPLQQSLAWFDPWGQGTMVTVSS chain 2: QSVLTQPPSASGTPGQRVTISCSGSTSNLKRNYVYWYQQLPGTAPKLLIYRDRRRPSGVPDRFSGSKSGTSASLAISGLRSEDEADYYCAWYDRELSEWVFGGGTKLTVL chain 3: not shown
2 |  | 0.705 |  |  | RV1:IL-15 complex (antibody) chain 1: QVQLVQSGAEVKKPGASVKVSCKASGYSFSSFGISWVRQAPGQGLEWLGWISAFNGYTKYAQKFQDRVTMTTDTSTSTAYMELRSLRSDDTAVYYCARDPAAWPLQQSLAWFDPWGQGTMVTVSS chain 2: QSVLTQPPSASGTPGQRVTISCSGSTSNLKRNYVYWYQQLPGTAPKLLIYRDRRRPSGVPDRFSGSKSGTSASLAISGLRSEDEADYYCAWYDRELSEWVFGGGTKLTVL chain 3: not shown
3 |  | 1.17 |  |  | RV19:IL-15 complex (antibody) chain 1: QVQLVQSGAEVKKPGASVKVSCKASGYSFSSFGISWVRQAPGQGLEWLGWISAFNGYTKYAQKFQDRVTMTTDTSTSTAYMELRSLRSDDTAVYYCARDPAAWPLQQSLAWFDPWGQGTMVTVSS chain 2: QSVLTQPPSASGTPGQRVTISCSGSTSNLKRNYVYWYQQLPGTAPKLLIYRDRRRPSGVPDRFSGSKSGTSASLAISGLRSEDEADYYCAWYDRELSEWVFGGGTKLTVL chain 3: not shown
4 |  |  | 0.227 | 0.0664 | RV37 IL-15 arm (antibody, V domains shown) VH: QVQLVQSGAEVKKPGASVKVSCKASGYSFSSFGISWVRQAPGQGLEWLGWISAFNGYTKYAQKFQDRVTMTTDTSTSTAYMELRSLRSDDTAVYYCARDPAAWPLQQSLAWFDPWGQGTMVTVSS VL: QSVLTQPPSASGTPGQRVTISCSGSTSNLKRNYVYWYQQLPGTAPKLLIYRDRRRPSGVPDRFSGSKSGTSASLAISGLRSEDEADYYCAWYDRELSEWVFGGGTKLTVL
5 | 0.72 | 0.732 |  |  | RV29:IL-15 complex (antibody) chain 1: QVQLVQSGAEVKKPGASVKVSCKASGYSFSSFGISWVRQAPGQGLEWLGWISAFNGYTKYAQKFQDRVTMTTDTSTSTAYMELRSLRSDDTAVYYCARDPAAWPLQQSLAWFDPWGQGTMVTVSS chain 2: QSVLTQPPSASGTPGQRVTISCSGSTSNLKRNYVYWYQQLPGTAPKLLIYRDRRRPSGVPDRFSGSKSGTSASLAISGLRSEDEADYYCAWYDRELSEWVFGGGTKLTVL chain 3: not shown
6 | 0.981 | 0.979 |  |  | RV31:IL-15 complex (antibody) chain 1: QVQLVQSGAEVKKPGASVKVSCKASGYSFSSFGISWVRQAPGQGLEWLGWISAFNGYTKYAQKFQDRVTMTTDTSTSTAYMELRSLRSDDTAVYYCARDPAAWPLQQSLAWFDPWGQGTMVTVSS chain 2: QSVLTQPPSASGTPGQRVTISCSGSTSNLKRNYVYWYQQLPGTAPKLLIYRDRRRPSGVPDRFSGSKSGTSASLAISGLRSEDEADYYCAWYDRELSEWVFGGGTKLTVL chain 3: not shown
7 | 0.722 | 0.804 |  |  | RV15:IL-15 complex (antibody) chain 1: QVQLVQSGAEVKKPGASVKVSCKASGYSFSSFGISWVRQAPGQGLEWLGWISAFNGYTKYAQKFQDRVTMTTDTSTSTAYMELRSLRSDDTAVYYCARDPAAWPLQQSLAWFDPWGQGTMVTVSS chain 2: QSVLTQPPSASGTPGQRVTISCSGSTSNLKRNYVYWYQQLPGTAPKLLIYRDRRRPSGVPDRFSGSKSGTSASLAISGLRSEDEADYYCAWYDRELSEWVFGGGTKLTVL chain 3: not shown
8 | 0.239 | 1.02 |  |  | RV18:IL-15 complex (antibody) chain 1: QVQLVQSGAEVKKPGASVKVSCKASGYSFSSFGISWVRQAPGQGLEWLGWISAFNGYTKYAQKFQDRVTMTTDTSTSTAYMELRSLRSDDTAVYYCARDPAAWPLQQSLAWFDPWGQGTMVTVSS chain 2: QSVLTQPPSASGTPGQRVTISCSGSTSNLKRNYVYWYQQLPGTAPKLLIYRDRRRPSGVPDRFSGSKSGTSASLAISGLRSEDEADYYCAWYDRELSEWVFGGGTKLTVL chain 3: not shown
9 |  |  | 0.352 | 0.108 | RV32 IL-15 arm (antibody, V domains shown) VH: QVQLVQSGAEVKKPGASVKVSCKASGYSFSSFGISWVRQAPGQGLEWLGWISAFNGYTKYAQKFQDRVTMTTDTSTSTAYMELRSLRSDDTAVYYCARDPAAWPLQQSLAWFDPWGQGTMVTVSS VL: QSVLTQPPSASGTPGQRVTISCSGSTSNLKRNYVYWYQQLPGTAPKLLIYRDRRRPSGVPDRFSGSKSGTSASLAISGLRSEDEADYYCAWYDRELSEWVFGGGTKLTVL
10 | 1.45 | 0.742 |  |  | RV32:IL-15 complex (antibody) chain 1: QVQLVQSGAEVKKPGASVKVSCKASGYSFSSFGISWVRQAPGQGLEWLGWISAFNGYTKYAQKFQDRVTMTTDTSTSTAYMELRSLRSDDTAVYYCARDPAAWPLQQSLAWFDPWGQGTMVTVSS chain 2: QSVLTQPPSASGTPGQRVTISCSGSTSNLKRNYVYWYQQLPGTAPKLLIYRDRRRPSGVPDRFSGSKSGTSASLAISGLRSEDEADYYCAWYDRELSEWVFGGGTKLTVL chain 3: not shown
11 |  |  |  | 0.106 | RV17 IL-15 arm (antibody, V domains shown) VH: QVQLVQSGAEVKKPGASVKVSCKASGYSFSSFGISWVRQAPGQGLEWLGWISAFNGYTKYAQKFQDRVTMTTDTSTSTAYMELRSLRSDDTAVYYCARDPAAWPLQQSLAWFDPWGQGTMVTVSS VL: QSVLTQPPSASGTPGQRVTISCSGSTSNLKRNYVYWYQQLPGTAPKLLIYRDRRRPSGVPDRFSGSKSGTSASLAISGLRSEDEADYYCAWYDRELSEWVFGGGTKLTVL
12 |  | 0.99 |  |  | RV17:IL-15 complex (antibody) chain 1: QVQLVQSGAEVKKPGASVKVSCKASGYSFSSFGISWVRQAPGQGLEWLGWISAFNGYTKYAQKFQDRVTMTTDTSTSTAYMELRSLRSDDTAVYYCARDPAAWPLQQSLAWFDPWGQGTMVTVSS chain 2: QSVLTQPPSASGTPGQRVTISCSGSTSNLKRNYVYWYQQLPGTAPKLLIYRDRRRPSGVPDRFSGSKSGTSASLAISGLRSEDEADYYCAWYDRELSEWVFGGGTKLTVL chain 3: not shown
13 |  |  |  | 0.108 | RV15 IL-15 arm (antibody, V domains shown) VH: QVQLVQSGAEVKKPGASVKVSCKASGYSFSSFGISWVRQAPGQGLEWLGWISAFNGYTKYAQKFQDRVTMTTDTSTSTAYMELRSLRSDDTAVYYCARDPAAWPLQQSLAWFDPWGQGTMVTVSS VL: QSVLTQPPSASGTPGQRVTISCSGSTSNLKRNYVYWYQQLPGTAPKLLIYRDRRRPSGVPDRFSGSKSGTSASLAISGLRSEDEADYYCAWYDRELSEWVFGGGTKLTVL
14 | 1.53 | 1.36 |  |  | RV26:IL-15 complex (antibody) chain 1: QVQLVQSGAEVKKPGASVKVSCKASGYSFSSFGISWVRQAPGQGLEWLGWISAFNGYTKYAQKFQDRVTMTTDTSTSTAYMELRSLRSDDTAVYYCARDPAAWPLQQSLAWFDPWGQGTMVTVSS chain 2: QSVLTQPPSASGTPGQRVTISCSGSTSNLKRNYVYWYQQLPGTAPKLLIYRDRRRPSGVPDRFSGSKSGTSASLAISGLRSEDEADYYCAWYDRELSEWVFGGGTKLTVL chain 3: not shown
15 |  |  | 0.339 | 0.114 | RV29 IL-15 arm (antibody, V domains shown) VH: QVQLVQSGAEVKKPGASVKVSCKASGYSFSSFGISWVRQAPGQGLEWLGWISAFNGYTKYAQKFQDRVTMTTDTSTSTAYMELRSLRSDDTAVYYCARDPAAWPLQQSLAWFDPWGQGTMVTVSS VL: QSVLTQPPSASGTPGQRVTISCSGSTSNLKRNYVYWYQQLPGTAPKLLIYRDRRRPSGVPDRFSGSKSGTSASLAISGLRSEDEADYYCAWYDRELSEWVFGGGTKLTVL
16 |  |  |  | 0.0769 | RV18 IL-15 arm (antibody, V domains shown) VH: QVQLVQSGAEVKKPGASVKVSCKASGYSFSSFGISWVRQAPGQGLEWLGWISAFNGYTKYAQKFQDRVTMTTDTSTSTAYMELRSLRSDDTAVYYCARDPAAWPLQQSLAWFDPWGQGTMVTVSS VL: QSVLTQPPSASGTPGQRVTISCSGSTSNLKRNYVYWYQQLPGTAPKLLIYRDRRRPSGVPDRFSGSKSGTSASLAISGLRSEDEADYYCAWYDRELSEWVFGGGTKLTVL
17 |  |  |  | 0.349 | RV1 (anti-IL-15 mAb DISC0280) (antibody, V domains shown) VH: QVQLVQSGAEVKKPGASVKVSCKASGYSFSSFGISWVRQAPGQGLEWLGWISAFNGYTKYAQKFQDRVTMTTDTSTSTAYMELRSLRSDDTAVYYCARDPAAWPLQQSLAWFDPWGQGTMVTVSS VL: QSVLTQPPSASGTPGQRVTISCSGSTSNLKRNYVYWYQQLPGTAPKLLIYRDRRRPSGVPDRFSGSKSGTSASLAISGLRSEDEADYYCAWYDRELSEWVFGGGTKLTVL
18 |  |  |  | 0.396 | RV26 IL-15 arm (antibody, V domains shown) VH: QVQLVQSGAEVKKPGASVKVSCKASGYSFSSFGISWVRQAPGQGLEWLGWISAFNGYTKYAQKFQDRVTMTTDTSTSTAYMELRSLRSDDTAVYYCARDPAAWPLQQSLAWFDPWGQGTMVTVSS VL: QSVLTQPPSASGTPGQRVTISCSGSTSNLKRNYVYWYQQLPGTAPKLLIYRDRRRPSGVPDRFSGSKSGTSASLAISGLRSEDEADYYCAWYDRELSEWVFGGGTKLTVL
19 |  |  |  | 0.0847 | RV19 IL-15 arm (antibody, V domains shown) VH: QVQLVQSGAEVKKPGASVKVSCKASGYSFSSFGISWVRQAPGQGLEWLGWISAFNGYTKYAQKFQDRVTMTTDTSTSTAYMELRSLRSDDTAVYYCARDPAAWPLQQSLAWFDPWGQGTMVTVSS VL: QSVLTQPPSASGTPGQRVTISCSGSTSNLKRNYVYWYQQLPGTAPKLLIYRDRRRPSGVPDRFSGSKSGTSASLAISGLRSEDEADYYCAWYDRELSEWVFGGGTKLTVL
